Measured values published in article doi:10.1101/398008.

Target: IMP3 KH1-2 WT (human, UniProt O00425 192-355)
Experiment: ITC

Chain of IMP3 KH1-2 WT (O00425 192-355): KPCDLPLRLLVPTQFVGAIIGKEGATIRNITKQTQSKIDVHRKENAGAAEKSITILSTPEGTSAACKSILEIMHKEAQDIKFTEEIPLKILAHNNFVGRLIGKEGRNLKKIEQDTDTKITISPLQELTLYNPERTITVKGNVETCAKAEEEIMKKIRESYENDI

Binder: AACACAAUUUUGGAGGAACUACAGAAUGCGGCUA (ssRNA) [34-mer]
- binding signal: ~10 fold higher affinity than 7-mer RNAs
